# Biological target: purified human vitronectin (Invitrogen) (UniProt P04004)
# Assay: ELISA
# Conditions: 20 nM Vn, read off a plot
# UniProt P04004, sequence (P04004 whole entry, looked up): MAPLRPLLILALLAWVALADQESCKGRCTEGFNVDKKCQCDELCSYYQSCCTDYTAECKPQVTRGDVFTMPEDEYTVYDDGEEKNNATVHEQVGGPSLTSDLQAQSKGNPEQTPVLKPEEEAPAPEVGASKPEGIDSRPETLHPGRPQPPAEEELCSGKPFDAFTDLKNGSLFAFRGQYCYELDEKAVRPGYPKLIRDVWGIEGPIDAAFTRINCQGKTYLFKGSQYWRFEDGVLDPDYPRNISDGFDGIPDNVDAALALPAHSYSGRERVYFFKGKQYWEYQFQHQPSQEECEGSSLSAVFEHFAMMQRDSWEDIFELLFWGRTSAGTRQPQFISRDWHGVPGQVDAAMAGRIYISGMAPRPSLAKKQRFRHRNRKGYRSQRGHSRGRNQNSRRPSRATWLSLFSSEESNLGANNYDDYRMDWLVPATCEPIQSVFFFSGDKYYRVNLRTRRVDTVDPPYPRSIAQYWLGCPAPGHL
substance,measurement,setting,value
synthetic peptide of loop 2 of P5 from NTHi KR271 I5A,response (absorbance at 450 nm),parent: est. 0.12,0.1
synthetic peptide of loop 2 of P5 from NTHi P652 V3A; F5A; L7A,response (absorbance at 450 nm),parent: est. 0.97,0.45
synthetic peptide of loop 2 of P5 from NTHi KR317 L5A; V8A; Q10A; T11A; R12A,response (absorbance at 450 nm),parent: est. 0.23,0.095
synthetic peptide of loop 2 of P5 from NTHi 3655 L5A; V8A; S12A,response (absorbance at 450 nm),parent: est. 0.28,0.13

# Source: paper PMC12718013
